Assay results as given in patent US20160272683A1 (Novo Nordisk, published 2016).
Each block holds one binder with its values, some of them ahead of it. Numbered stars: 1 amine (or outer) side, 2 acyl side, 3 side chain; on linkers, the order of the positions; unused ones are H or OH. * marks the point of attachment. C20 diacid = O=C(O)CCCCCCCCCCCCCCCCCCC(=O)*; C18 diacid = O=C(O)CCCCCCCCCCCCCCCCC(=O)*; γGlu = O=C(O)[C@H](CCC(=O)[*:2])N[*:1]

Assays:
[1] = target: T1, human amylin 3(a) receptor (human calcitonin receptor co-expressed with RAMP-3) (human, UniProt P30988 25-474; O60896 24-148, limits assumed); assay: cell-based or functional assay
T1 sequence (looked up) 1: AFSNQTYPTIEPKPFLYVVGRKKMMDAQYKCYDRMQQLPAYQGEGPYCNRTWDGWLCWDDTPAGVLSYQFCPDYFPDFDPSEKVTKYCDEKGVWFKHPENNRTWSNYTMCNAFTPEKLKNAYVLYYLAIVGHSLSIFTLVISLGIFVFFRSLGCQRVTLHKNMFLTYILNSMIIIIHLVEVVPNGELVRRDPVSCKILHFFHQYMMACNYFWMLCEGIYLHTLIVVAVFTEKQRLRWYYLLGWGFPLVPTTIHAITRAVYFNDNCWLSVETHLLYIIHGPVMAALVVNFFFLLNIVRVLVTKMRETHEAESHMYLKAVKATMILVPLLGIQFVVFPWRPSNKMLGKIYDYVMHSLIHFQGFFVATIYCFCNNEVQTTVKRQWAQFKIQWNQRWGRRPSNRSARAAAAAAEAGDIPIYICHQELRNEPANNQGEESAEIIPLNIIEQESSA
T1 sequence (looked up) 2: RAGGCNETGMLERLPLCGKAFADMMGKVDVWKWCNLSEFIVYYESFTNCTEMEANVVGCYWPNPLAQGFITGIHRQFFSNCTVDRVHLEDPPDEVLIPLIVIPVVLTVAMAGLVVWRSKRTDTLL

[2] = target: T2, human calcitonin receptor (human, UniProt P30988 25-474); assay: cell-based or functional assay
T2 sequence (looked up): T1 sequence (looked up) 1

hAmylin-R funct. EC50 (pM) [1]: 66 pM
hCTR funct. EC50 (pM) [2]: 56 pM
B1: [N-terminal(C20 diacid-gGlu), 4Q, 9V, 15Q, 21Q, 23Y, 27G, 30S, 31G, 32T, 33Y]mimylin (peptide)
peptide: {C20 diacid-γGlu}-EASQLSTAVLGRLSQELHELQTYPRTGTGSGTY-NH2
SMILES: CC(C)C[C@H](NC(=O)[C@H](CCCNC(=N)N)NC(=O)CNC(=O)[C@H](CC(C)C)NC(=O)[C@@H](NC(=O)[C@H](C)NC(=O)[C@@H](NC(=O)[C@H](CO)NC(=O)[C@H](CC(C)C)NC(=O)[C@H](CCC(N)=O)NC(=O)[C@H](CO)NC(=O)[C@H](C)NC(=O)[C@H](CCC(=O)O)NC(=O)CC[C@H](NC(=O)CCCCCCCCCCCCCCCCCCC(=O)O)C(=O)O)[C@@H](C)O)C(C)C)C(=O)N[C@@H](CO)C(=O)N[C@@H](CCC(N)=O)C(=O)N[C@@H](CCC(=O)O)C(=O)N[C@@H](CC(C)C)C(=O)N[C@@H](Cc1c[nH]cn1)C(=O)N[C@@H](CCC(=O)O)C(=O)N[C@@H](CC(C)C)C(=O)N[C@@H](CCC(N)=O)C(=O)N[C@H](C(=O)N[C@@H](Cc1ccc(O)cc1)C(=O)N1CCC[C@H]1C(=O)N[C@@H](CCCNC(=N)N)C(=O)N[C@H](C(=O)NCC(=O)N[C@H](C(=O)NCC(=O)N[C@@H](CO)C(=O)NCC(=O)N[C@H](C(=O)N[C@@H](Cc1ccc(O)cc1)C(N)=O)[C@@H](C)O)[C@@H](C)O)[C@@H](C)O)[C@@H](C)O

hAmylin-R funct. EC50 (pM) [1]: 62 pM
hCTR funct. EC50 (pM) [2]: 63 pM
B2: [N-terminal(C20 diacid-gGlu), des1, 4Q, 9V, 15Q, 21Q, 23Y, 30S, 31Q, 32T, 33Y]mimylin (peptide)
peptide: {C20 diacid-γGlu}-ASQLSTAVLGRLSQELHELQTYPRTETGSQTY-NH2
SMILES: CC(C)C[C@H](NC(=O)[C@H](CCCNC(=N)N)NC(=O)CNC(=O)[C@H](CC(C)C)NC(=O)[C@@H](NC(=O)[C@H](C)NC(=O)[C@@H](NC(=O)[C@H](CO)NC(=O)[C@H](CC(C)C)NC(=O)[C@H](CCC(N)=O)NC(=O)[C@H](CO)NC(=O)[C@H](C)NC(=O)CC[C@H](NC(=O)CCCCCCCCCCCCCCCCCCC(=O)O)C(=O)O)[C@@H](C)O)C(C)C)C(=O)N[C@@H](CO)C(=O)N[C@@H](CCC(N)=O)C(=O)N[C@@H](CCC(=O)O)C(=O)N[C@@H](CC(C)C)C(=O)N[C@@H](Cc1c[nH]cn1)C(=O)N[C@@H](CCC(=O)O)C(=O)N[C@@H](CC(C)C)C(=O)N[C@@H](CCC(N)=O)C(=O)N[C@H](C(=O)N[C@@H](Cc1ccc(O)cc1)C(=O)N1CCC[C@H]1C(=O)N[C@@H](CCCNC(=N)N)C(=O)N[C@H](C(=O)N[C@@H](CCC(=O)O)C(=O)N[C@H](C(=O)NCC(=O)N[C@@H](CO)C(=O)N[C@@H](CCC(N)=O)C(=O)N[C@H](C(=O)N[C@@H](Cc1ccc(O)cc1)C(N)=O)[C@@H](C)O)[C@@H](C)O)[C@@H](C)O)[C@@H](C)O

hAmylin-R funct. EC50 (pM) [1]: 7 pM
hCTR funct. EC50 (pM) [2]: 5 pM
B3: [N-terminal(C18 diacid), 17I]mimylin (peptide)
peptide: {C18 diacid}-EASELSTAALGRLSAEIHELATLPRTETGPESP-NH2
SMILES: CC[C@H](C)[C@H](NC(=O)[C@H](CCC(=O)O)NC(=O)[C@H](C)NC(=O)[C@H](CO)NC(=O)[C@H](CC(C)C)NC(=O)[C@H](CCCNC(=N)N)NC(=O)CNC(=O)[C@H](CC(C)C)NC(=O)[C@H](C)NC(=O)[C@H](C)NC(=O)[C@@H](NC(=O)[C@H](CO)NC(=O)[C@H](CC(C)C)NC(=O)[C@H](CCC(=O)O)NC(=O)[C@H](CO)NC(=O)[C@H](C)NC(=O)[C@H](CCC(=O)O)NC(=O)CCCCCCCCCCCCCCCCC(=O)O)[C@@H](C)O)C(=O)N[C@@H](Cc1c[nH]cn1)C(=O)N[C@@H](CCC(=O)O)C(=O)N[C@@H](CC(C)C)C(=O)N[C@@H](C)C(=O)N[C@H](C(=O)N[C@@H](CC(C)C)C(=O)N1CCC[C@H]1C(=O)N[C@@H](CCCNC(=N)N)C(=O)N[C@H](C(=O)N[C@@H](CCC(=O)O)C(=O)N[C@H](C(=O)NCC(=O)N1CCC[C@H]1C(=O)N[C@@H](CCC(=O)O)C(=O)N[C@@H](CO)C(=O)N1CCC[C@H]1C(N)=O)[C@@H](C)O)[C@@H](C)O)[C@@H](C)O
